{"source": "patent US7414113B2", "about": "“Antibody that specifically binds to Candida kefyr Cytosine deaminase” (Onyx Pharmaceuticals, Inc., priority 2002, dated 2008)", "molecules": {"B1": {"name": "CK-CD: Wild type Candida kefyr cytosine deaminase protein, 152 amino acids, SEQ ID NO: 2 (protein)", "chain": "MAEWDQKGMDKAYEEAAIGYKEGGVPIGGCLIDNLTGEILGSGHNMRFQKGSPTLHGETSTLENAGRLKGSVYKHCTMYTTLSPCDMCTGAILLYGIGRVVIGENVNFKSPGEEYLTSRGVELKVVDDKRCIDIMKEFIEKRPEDWYEDIGE"}, "B2": {"name": "E-CD-FLAG: E. coli cytosine deaminase with FLAG tag (protein, UniProt P25524 2-427, looked up)", "Cytosine deaminase": "SNNALQTIINARLPGEEGLWQIHLQDGKISAIDAQSGVMPITENSLDAEQGLVIPPFVEPHIHLDTTQTAGQPNWNQSGTLFEGIERWAERKALLTHDDVKQRAWQTLKWQIANGIQHVRTHVDVSDATLTALKAMLEVKQEVAPWIDLQIVAFPQEGILSYPNGEALLEEALRLGADVVGAIPHFEFTREYGVESLHKTFALAQKYDRLIDVHCDEIDDEQSRFVETVAALAHHEGMGARVTASHTTAMHSYNGAYTSRLFRLLKMSGINFVANPLVNIHLQGRFDTYPKRRGITRVKEMLESGINVCFGHDDVFDPWYPLGTANMLQVLHMGLHVCQLMGYGQINDGLNLITHHSARTLNLQDYGIAAGNSANLIILPAENGFDALRRQVPVRYSVRGGKVIASTQPAQTTVYLEQPEAIDYKR", "modifications": "FLAG tag"}, "B3": {"name": "CK-CD-FLAG: Candida kefyr CD with FLAG tag, with the D33E variation (protein)", "chain": "B1 chain with D33E", "modifications": "C-terminal FLAG tag", "notes": "Candida kefyr CD with FLAG tag, with the D33E variation"}, "B4": {"name": "S. cerevisiae FCY1: Wild type Saccharomyces cerevisiae CD protein, 158 amino acids (protein)", "chain": "MVTGGMASKWDQKGMDIAYEEAALGYKEGGVPIGGCLINNKDGSVLGRGHNMRFQKGSATLHGEISTLENCGRLEGKVYKDTTLYTTLSPCDMCTGAIIMYGIPRCVVGENVNFKSKGEKYLQTRGHEVVVVDDERCKKIMKQFIDERPQDWFEDIGE"}, "B5": {"name": "E-CD: E. coli (bacterial) cytosine deaminase, 427 amino acids (protein, UniProt P25524 2-427, looked up)", "Cytosine deaminase": "B2 Cytosine deaminase"}, "B6": {"name": "CD-FUR1 fusion protein: Fusion of Candida kefyr CD and uracil phosphoribosyltransferase (FUR1) (protein)", "chain": "MAEWDQKGMDKAYEEAAIGYKEGGVPIGGCLIDNLTGEILGSGHNMRFQKGSPTLHGETSTLENAGRLKGSVYKHCTMYTTLSPCDMCTGAILLYGIGRVVIGENVNFKSPGEEYLTSRGVELKVVDDKRCIDIMKEFIEKRPEDWYEDIGEASEPFKNVYLLPQTNQLLGLYTIIRNKNTTRPDFIFYSDRIIRLLVEEGLNHLPVQKQIVETDTNENFEGVSFMGKICGVSIVRAGESMEQGLRDCCRSVRIGKILIQRDEETALPKLFYEKLPEDISERYVFLLDPMLATGGSAIMATEVLIKRGVKPERIYFLNLICSKEGIEKYHAAFPEVRIVTGALDRGLDENKYLVPGLGDFGDRYYCV"}}, "key": {"[1]": {"assay": "5FC to 5FU conversion assay at different temperatures (14C, TLC)", "type": "biochemical", "settings": "for 5FC to 5FU conversion activity: cell lysate, 2 hour assay, FIG. 10", "protocol": "(§1) The plate was then dried and visualized by autoradiography.\nIn the next experiment, we tested the activity of each enzyme against 5FC. The experiment was performed as described above, but using 5FC in place of cytosine. Further, this experiment was combined with a temperature optimization study and was performed at 4 different temperatures. […] Further, a variant with increased stability can be isolated by screening yeast grown at 37° C., as described in the Examples below."}, "HEK 293 cells": {"test_system": "HEK 293 cells", "assay": "Expression of CD constructs, anti-FLAG Western blot of cell lysate", "type": "cell-based, Human", "settings": "transiently transfected HEK 293 cells", "source_text": "Human embryonic kidney cells (HEK 293 cells) were transiently transfected with one of these constructs: CK-CD-FLAG, CK-CD, E-CD-FLAG, E-CD or vector alone (pCMV-tag4C). […] Cells co-transfected with a construct and a GFP containing plasmid indicated approximately equivalent levels of transfection.\nThe experimental details are as follows: 293 cells in 10 cm dishes were transfected with 10 or 15 ÿg of CD constructs using FuGene® 6 (ROCHE™) at a DNA/FuGene® ratio of 1:3. No carrier DNA was used. Cell lysates were collected in 1 ml of lysis buffer (20 mM Tris-Cl, pH8, 150 mM NaCl, 1% Triton X-100) after 48 hours by three freeze/thaw cycles using dry ice for 10 minutes and room temperature for 10 minutes.\n30 μl of cell lysate was separated by 12% SDS-PAGE, transferred to membrane and then Western blotted with anti-flag monoclonal antibody at a dilution of 1:5000 (SIGMA™). The membranes were incubated with HRP conjugated goat-anti-mouse secondary antibody (1:10000, AMERSHAM™) and the signal visualized with an ECL system (AMERSHAM™). […] Similar results were obtained (not shown) when the cells were transfected with 2 μg of each DNA construct. Experiments are planned to test a humanized C. kefyr gene and it is expected that the humanized gene will improve the expression levels.\nBecause the bacterial protein was more strongly expressed than the yeast protein, an attempt was made to compare the levels for the amount of expression of the two clones. In a second Western blot, 30 μl of CK-CD-FLAG was compared against increasing amounts of E-CD-FLAG. […] In the following experiments, this ratio of cell lysates is used. The presence of a fainter band at about 38 KD may indicate that some portion of the CK-CD protein dimerizes."}, "[2]": {"settings": "cell lysate, 37° C., 16 hour assay, FIG. 9; listed as C. kefyr CD protein", "description": "The reaction mixtures were loaded onto a TLC plate (LK5DF SILICA GEL, Cat. No. 4856-821, WHATMAN™) and resolved with 1-butanol:H2O (85:15) for 3 hours. The plate was then dried and visualized by autoradiography.\nCell lysates were assayed for cytosine to uracil conversion at 37° C. in a 16 hour assay."}, "[3]": {"assay": "Activity of CD variants (conversion of 5FC to 5FU)", "type": "biochemical", "settings": "mutant tested, versus protein of SEQ ID NO: 2", "source_text": "“Fragments” refers to those polypeptides (or nucleic acid sequences encoding such polypeptides) retaining antigenicity, a structural domain, or an enzymatic activity of the full-length protein. The “enzymatic activity” of the CD protein is herein defined to be the conversion of 5FC to 5FU.\nas §1\nThe specific variants listed in table 2 are synthesized by site specific mutagenesis of SEQ ID NO: 1 or SEQ ID NO: 3. […] Further, changes within the cytidine and deoxycytidylate deaminase zinc-binding region (grey box) are also expected to be less well tolerated than changes outside this region. These residues involve a change in charge as compared with the closest homolog and are in the binding region. Changes in these residues are expected to change function. Active variants are likely to be those that involve conservative changes in those residues not conserved in the 2 yeasts, particularly those outside the binding region.\nVariants are expressed in E. coli and screened for activity using the assay described in example 3, or any suitable assay. Alternatively, random mutagenesis is performed and the products are similarly screened. In this manner, it will be possible to isolate variants with improved temperature stability at 37° C. and mutants with even better activity than that described herein."}, "[4]": {"settings": "reference 16, cited from earlier work"}, "[5]": {"settings": "cited from earlier work"}}, "note": "Substitutions are numbered along the chain they refer to. Numbers in names are those of the source. Entries after “also recorded” stand apart in the source; their conditions may differ.", "data": [{"molecule": "B1", "values": [{"measurement": "substrate preference, 5FC versus cytosine", "setting": "[1]", "value": "5FC is a better substrate for C. kefyr CD than is the natural substrate, cytosine"}, {"measurement": "Activity % 5FU/5FC", "setting": "[1]; by 45 ul cell extract, 2 h", "value": "~50", "unit": "% by 45 ul"}, {"measurement": "5FC to 5FU conversion activity", "setting": "[1]", "value": "much more active than CK-CD-FLAG; also recorded: more active against 5FC than the bacterial protein; also recorded: more active against 5FC than is the E. coli CD at 2 hours"}, {"measurement": "5FC to 5FU conversion activity", "setting": "[1]; listed as C. kefyr CD", "value": "much higher in converting 5FC to 5FU"}, {"measurement": "5FC to 5FU conversion activity", "setting": "[1]; listed as C. kefyr protein", "value": "sufficiently active at 37 °C"}, {"measurement": "increased cytotoxicity and bystander effect per unit dose of 5FC compared with the bacteria", "setting": "transfected cells", "value": "up to 10 fold"}, {"measurement": "expression level", "setting": "HEK 293 cells", "value": "significantly lower expression levels than E. coli CD"}, {"measurement": "cytosine to uracil conversion activity", "setting": "[2]", "value": "far less active against cytosine than was the E. coli CD protein"}]}, {"molecule": "B2", "values": [{"measurement": "expression level", "setting": "HEK 293 cells", "value": "much more strongly expressed than the yeast protein"}, {"measurement": "expression level", "setting": "HEK 293 cells; listed as E. coli CD-FLAG", "value": "expressed much more efficiently than Candida kefyr CD-FLAG"}]}, {"molecule": "B3", "values": [{"measurement": "5FC to 5FU conversion activity", "setting": "[1]", "value": "more active against 5FC than the bacterial protein"}, {"measurement": "Activity", "setting": "[3]", "value": "Mutant tested and has less activity"}, {"measurement": "expression level", "setting": "HEK 293 cells", "value": "about ten-fold less well expressed than the E-CD-FLAG"}]}, {"molecule": "B4", "values": [{"measurement": "Activity % 5FU/5FC by 0.2 μg CD in 2 h", "setting": "[4]", "value": "^1677.9 ± 6.2%"}, {"measurement": "Km", "setting": "[4]", "value": 0.8, "unit": "mM"}, {"measurement": "Vmax", "setting": "[4]", "value": "^1668.0 ± 12.0 μM/min/μg enzyme"}, {"measurement": "T½", "setting": "[5]; measured, reference 16 (value in brackets)", "value": "(^161) HR"}, {"measurement": "measured T1/2", "setting": "[5]; thermal instability, reference 16", "value": 1, "unit": "h"}]}, {"molecule": "B5", "values": [{"measurement": "5FU produced", "setting": "[1]; 16 hours of reaction (not shown)", "value": "as much or more 5FU than the yeast protein"}, {"measurement": "Activity % 5FU/5FC by 0.2 μg CD in 2 h", "setting": "[4]", "value": "^1616.0 ± 0.8%"}, {"measurement": "Km", "setting": "[4]", "value": 17.9, "unit": "mM"}, {"measurement": "Vmax", "setting": "[4]", "value": "^1611.7 ± 3.8 μM/min/μg enzyme"}]}, {"molecule": "B6", "values": [{"measurement": "expected activity in cytotoxicity assay", "setting": "transfected cells", "value": "increased activity"}]}]}
